Fold reduction of the affinity against the wild type proteins data for one substance are collected here from publication PMC2897767, “Two Distinct Mechanisms for Actin Capping Protein Regulation—Steric and Allosteric Inhibition” (PLoS Biology, 2010).

Bounds are passed on as bounds.

The target in the assay is GST-V-1 (human) (UniProt P58546). Briefly: SPR; GST-fusion protein (GST-V-1, GST-CA or GST-CD) immobilised on a CM5 chip via anti-GST antibodies (up to 200 RU), CP perfused at 20 µl/min; 20°C; 50 mM KCl, 1 mM MgCl2, 0.005% Tween-20, 10 mM imidazole pH 7.0; 1:1 fit, KD from the kinetic rate constants (steady state for several fast-dissociating mutants). In general terms: SPR reads the build-up and loss of mass on a sensor chip optically.
GST-V-1 (human), sequence (P58546 whole entry, the tested form may be a part): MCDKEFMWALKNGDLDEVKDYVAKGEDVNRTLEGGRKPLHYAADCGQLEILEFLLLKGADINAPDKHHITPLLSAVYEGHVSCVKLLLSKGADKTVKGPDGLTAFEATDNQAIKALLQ

In turn, “CP with mutations of residues which form the “basic triad” (CP (α) Lys256, Arg260, Arg266)” showed a fold reduction of the affinity against the wild type proteins of over 25 fold.
